Measured values as given in patent US20110046355A1 (F STAR BIOTECHNOLOGISCHE FORSCHUNGS UND ENTWICKLUNGSGES M B …, published 2011).
Residue numbers refer to the chain shown, from its start. One block for each binder: values may come before it.

What was measured:
[1] = molecular target: T1, Human soluble Her-2 (Bender Med Systems, Austria) (human, UniProt P04626 23-652, biotinylated (sulfo-LC-LC-biotin) when used for yeast FACS staining; unlabelled in ELISA and SPR); experiment: ELISA, human soluble Her-2 coated at 2 ug/ml, Fcab titrated, anti-Fc CH2-HRP detection
T1 construct: extracellular domain; given only as 'human soluble Her-2'; also called recombinant antigen Her2 (Bendermedsystems); Her2-biotin
Method: Human soluble Her-2 (Bender Med Systems, Austria) was coated to plastic at 2 μg/ml. After washing and blocking unspecific binding sites, increasing concentrations of Fcabs were added. To detect Her-2 bound Fcabs, anti-Fc CH2 domain specific monoclonal antibodies which were conjugated to horse radish peroxidase (Serotec) were added.

[2] = molecular target: T2, Her-2 on Her-2 over-expressing human breast cancer cell lines SKBR3 and Calu-3 (human, UniProt P04626 23-1255); experiment: FACS on Her-2 over-expressing SKBR3 cells, anti-human Fc-PE detection
T2 construct: whole, on cells; also called SKBR3 cells; Calu-3 cells
Method: (§1) Antigen binding was also determined by SPR. Biacore CM5 chips were coated with different amounts of human soluble Her-2 followed by addition of increasing concentrations of Fcabs. The affinity (KD) of the Fcabs was calculated from the resulting binding curves after fitting using the software BiaEval. […] Antigen binding was also assessed by FACS using the Her-2 over-expressing human breast cancer cell lines SKBR3 and Calu-3. 1×10⁵ cells were incubated with increasing concentrations of Fcabs for 60 minutes on ice. Then, unbound antibodies were removed by centrifugation and washing. Cell bound Fcabs were detected by incubation with anti-human Fc specific antibodies conjugated to phycoerythrin (Sigma) for 60 minutes on ice. After washing the cells, the intensity of fluorescence on the cell surface was measured in a FACS Calibur instrument (Beckton Dickinson).

[3] = molecular target: T2, Her-2 on Her-2 over-expressing human …; experiment: cell-based or functional assay
[4] = molecular target: T1, Human soluble Her-2 (Bender Med …); experiment: assay not stated; told in the yeast display FACS selection and affinity maturation section (biotinylated Her2)
[5] = molecular target: T1, Human soluble Her-2 (Bender Med …); experiment: SPR, Biacore CM5 chip coated with human soluble Her-2, Fcab as analyte, BiaEval fit
Method: as §1

[6] = molecular target: T3, Fcab wt (non-randomized Fc fragment) expressed on yeast (human, UniProt P0DOX5 218-449 = IgG part); experiment: FACS of yeast-displayed Fcab wt, CD64 staining
T3 construct: also called Fcab-wt expressing cells; not shown: N-terminal Aga2 display fusion (and CH1 in vector pYD1dXFc)

[7] = molecular target: T4, wild type Fcab (human, UniProt P0DOX5 218-449 = IgG part, limits assumed); experiment: SPR, Fcab (10 ug/ml) captured on Protein A chip (3000 RU), human soluble CD64 at 5 ug/ml as analyte
T4 construct: also called Fcab wt; wtFcab
Method: Association with the neonatal Fc receptor (FcRn) was measured by adding 10 μg/ml Fcab to a Biacore CM5 chip coupled to 5000 response units (RU) of recombinant human FcRn at pH=6.0. The dissociation of Fcab from FcRn was tested at pH=7.4. […] Finally, human soluble CD64 at 5 μg/ml was added.

EC50 [1]: 4.3 nM
B1: y-Her.C2.P4.2-9 (designed binder)
chain: EPKSCDKTHTCPPCPAPELLGGPSVFLFPPKPKDTLMISRTPEVTCVVVDVSHEDPEVKFNWYVDGVEVHNAKTKPREEQYNSTYRVVSVLTVLHQDWLNGKEYKCKVSNKALPAPIEKTISKAKGQPREPQVYTLPPSRDEYLHGDVSLTCLVKGFYPSDIAVEWESNGQPENNYKTTPPVLDSDGSFFLYSKLTVARYSPRMLRWAHGNVFSCSVMHEALHNHYTQKSLSLSPGK

EC50 [1]: 4.7 nM | EC50 [2]: 1.3 nM
B2: EF3-17 (designed binder)
chain: B1 chain with Y200H, P202R, R203T, L205W, A208G

EC50 [1]: 16.1 nM | EC50 [2]: 5.2 nM
B3: ABEFs0101 (designed binder)
chain: B1 chain with H145S, G146A, R203S, L205W, A208G
notes: If read literally (148-197) a Val would be doubled
ADCC: SKBR3 cell killing by NK cells (7-AAD/CFSE double positive cells), EC50 [3]: 1 nM

EC50 [1]: 370 nM
B4: y-Her.C2.P4.2-4 (designed binder)
chain: B1 chain with L144S, H145D

EC50 [1]: 463 nM
B5: y-Her.C2.P4.2-3 (designed binder)
chain: B1 chain with L144A, H145S, G146N, D147T

EC50 [1]: 93 nM
B6: y-Her.C2.P4.2-19 (designed binder)
chain: B1 chain with L144R, H145S, D147E

EC50 [1]: 4.8 nM | EC50 [4]: 18.9 nM | EC50 [2]: 10.3 nM | Kd [5]: 8.6 nM
B7: H10-03-6 (designed binder)
chain: B1 chain with H145Y, A198P, Y200H, P202A, L205W
notes: also called H10-03-6 clone
ADCC: SKBR3 cell killing by NK cells (7-AAD/CFSE double positive cells), EC50 [3]: 1.1 nM

binding result [6]: binds | binding result [7]: binds
B8: human soluble CD64 (receptor, UniProt P12314 16-292, looked up)
chain: QVDTTKAVITLQPPWVSVFQEETVTLHCEVLHLPGSSSTQWFLNGTATQTSTPSYRITSASVNDSGEYRCQRGLSGRSDPIQLEIHRGWLLLQVSSRVFTEGEPLALRCHAWKDKLVYNVLYYRNGKAFKFFHWNSNLTILKTNISHNGTYHCSGMGKHRYTSAGISVTVKELFPAPVLNASVTSPLLEGNLVTLSCETKLLLQRPGLQLYFSFYMGSKTLRGRNTSSEYQILTARREDSGLYWCEAATEDGNVLKRSPELELQVLGLQLPTPVWFH
notes: extracellular domain; Printed as 'human soluble CD64'; also called human CD64 (R&D Systems)

EC50 [1]: 263 nM | Kd [5]: 7.5 nM
B9: H561G3M1G4 (designed binder)
chain: EPKSCDKTHTCPPCPAPELLGGPSVFLFPPKPKDTLMISRTPEVTCVVVDVSHEDPEVKFNWYVDGVEVHNAKTKPREEQYNSTYRVVSVLTVLHQDWLNGKEYKCKVSNKALPAPIEKTISKAKGQPREPQVYTLPPSRDEFFTYWVSLTCLVKGFYPSDIAVEWESNGQPENNYKTTPPVLDSDGSFFLYSKLTVDRRRWTAGNVFSCSVMHEALHNHYTQKSLSLSPGK
